Measured values published in patent US20230235004A1 (published 2023).
Where a chain is given by its changes, count along the chain named. One block for each binder: values may come before it.

Experiments:
[1] = target: T1, mouse MAdCAM expressed on cells (mouse, UniProt Q61826 22-405); assay: cell binding
T1 construct: whole, on cells
T1 sequence (looked up): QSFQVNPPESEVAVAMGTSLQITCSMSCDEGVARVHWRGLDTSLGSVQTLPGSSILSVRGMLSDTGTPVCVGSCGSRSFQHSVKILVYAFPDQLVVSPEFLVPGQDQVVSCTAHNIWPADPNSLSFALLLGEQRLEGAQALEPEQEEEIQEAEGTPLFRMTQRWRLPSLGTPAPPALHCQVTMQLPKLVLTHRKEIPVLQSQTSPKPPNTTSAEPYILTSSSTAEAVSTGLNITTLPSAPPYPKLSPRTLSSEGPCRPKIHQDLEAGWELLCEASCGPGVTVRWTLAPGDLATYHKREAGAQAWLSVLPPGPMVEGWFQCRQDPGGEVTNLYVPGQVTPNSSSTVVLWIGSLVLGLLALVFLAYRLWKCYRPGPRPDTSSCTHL

[2] = target: T2, human MAdCAM expressed on cells (human, UniProt Q13477 19-382); assay: cell binding
T2 construct: whole, on cells
T2 sequence (looked up): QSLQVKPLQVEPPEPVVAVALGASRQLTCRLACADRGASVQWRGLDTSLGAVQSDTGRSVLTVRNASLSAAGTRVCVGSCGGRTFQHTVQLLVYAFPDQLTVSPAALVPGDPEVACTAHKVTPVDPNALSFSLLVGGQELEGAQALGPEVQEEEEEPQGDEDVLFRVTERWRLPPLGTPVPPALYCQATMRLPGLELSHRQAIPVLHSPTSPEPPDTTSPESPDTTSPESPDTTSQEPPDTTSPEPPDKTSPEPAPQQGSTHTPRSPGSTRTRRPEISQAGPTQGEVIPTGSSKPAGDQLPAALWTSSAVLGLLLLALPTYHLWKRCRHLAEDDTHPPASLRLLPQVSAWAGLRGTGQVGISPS

- binding result [2]: binds
- binding result [1]: no binding
B3: MAdCAM Antibody Table 2 clone 19 (antibody, V domains shown)
VH: EVQLLESGGGLVQPGGSLRLSCAASGFTFEDYAMHWVRQAPGKGLEWVSYLNSDGGSTSYADSVKGRFTISRDNSKNTLYLQMNSLRAEDTAVYYCAKDYCTNGVCAFDYWGQGTLVTVSS
VL: DIQMTQSPSSLSASVGDRVTITCRASQSISTYLNWYQQKPGKAPKLLIYDASNLETGVPSRFSGSGSGTDFTLTISSLQPEDFATYYCQQSYTIPITFGQGTRLEIK
notes: IgG format

- binding result [1]: no binding
B4: MAdCAM Antibody Table 2 clone 35 (antibody, V domains shown)
VH: QVQLVQSGAEVKKPGASVKVSCKASGYTFTGYYIHWVRQAPGQGLEWMGWMNPNSGNTGYAQKFQGRVTMTRDTSTSTVYMELSSLRSEDTAVYYCARDPGFLGYSSGGSSYDGWFDPWGQGTLVTVSS
VL: B3 VL with T31S, N34H, D50A, N53S, E55Q, T56S, I94A, I96Y, R103K
notes: IgG format

- binding result [2]: binds
- binding result [1]: no binding
B6: MAdCAM Antibody Table 2 clone 13 (antibody, V domains shown)
VH: QVQLVQSGAEVKKPGASVKVSCKASGYTFTTYYMHWVRQAPGQGLEWMGGFDPEDGETIYAQKFQGRVTMTRDTSTSTVYMELSSLRSEDTAVYYCARHAVAGAVGAGYYYYGMDVWGQGTMVTVSS
VL: DIQMTQSPSSLSASVGDRVTITCRASESISNWLAWYQQKPGKAPKLLIYAASTLQSGVPSRFSGSGSGTDFTLTISSLQPEDFATYYCQQSYSVPFTFGPGTKVDIK
notes: IgG format

- binding result [1]: no binding
B8: MAdCAM Antibody Table 2 clone 9 (antibody, V domains shown)
VH: QVQLVQSGAEVKKPGASVKVSCKASGYTFTSYYMHWVRQAPGQGLEWMGIINHSGGSTSYAQKFQGRVTMTRDTSTSTVYMELSSLRSEDTAVYYCARPYSGWYFAFDIWGQGTLVTVSS
VL: not shown
notes: IgG format

- binding result [1]: no binding
B10: MAdCAM Antibody Table 2 clone 40 (antibody, V domains shown)
VH: QVQLVQSGAEVKKPGASVKVSCKASGYTLTTWYMYWVRQAPGQGLEWMGWINPNRGATNYAQKFQGRVTMTRDTSTSTVYMELSSLRSEDTAVYYCAKGDLWGAMDVWGQGTLVTVSS
VL: B6 VL with E27D, S28N, S30G, N31S, T53S, S91G, V94T, F96P, P100Q, D105E
notes: IgG format

- binding result [2]: binds
- binding result [1]: no binding
B11: MAdCAM Antibody Table 2 clone 25 (antibody, V domains shown)
VH: EVQLLESGGGLVQPGGSLRLSCAASGFTFSNAWMSWVRQAPGKGLEWVSTIVGNGGATYYADSVKGRFTISRDNSKNTLYLQMNSLRAEDTAVYYCARDNPLRWQGMDVWGQGTLVTVSS
VL: B6 VL with E27Q, S28D, W32Y, A34N, T53S, V94I, F96P
notes: IgG format

- binding result [1]: no binding
B15: MAdCAM Antibody Table 2 clone 33 (antibody, V domains shown)
VH: B10 VH with L113T
VL: B6 VL with E27D, S28N, S30G, N31S, T53S, S91G, V94T, F96P, P100Q, D105E
notes: IgG format

Further lines, the binder ahead of its results:

B1: MAdCAM Antibody Table 2 clone 52 (antibody, V domains shown)
VH: EVQLLESGGGLVQPGGSLRLSCAASGFTFDDYGMSWVRQAPGKGLEWVSYISSSSSYIYYADSVKGRFTISRDNSKNTLYLQMNSLRAEDTAVYYCAREIAAAGFYGMDVWGQGTTVTVSS
VL: not shown
notes: IgG format
- binding result [1]: no binding

B2: MAdCAM Antibody Table 2 clone 10 (antibody, V domains shown)
VH: EVQLLESGGGLVQPGGSLRLSCAASGFMFGDYAMHWVRQAPGKGLEWVSAISGSGGSTYYADSVKGRFTISRDNSKNTLYLQMNSLRAEDTAVYYCAKDLVVAGIWYFDLWGRGTLVTVSS
VL: DIQMTQSPSSLSASVGDRVTITCRASQGISNNLNWYQQKPGKAPKLLIYDASSLESGVPSRFSGSGSGTDFTLTISSLQPEDFATYYCQQTHSFPSTFGQGTKLEIK
notes: IgG format
- binding result [2]: binds
- binding result [1]: binds

B5: MAdCAM Antibody Table 2 clone 21 (antibody, V domains shown)
VH: EVQLVESGGGLVKPGGSLRLSCAASGFTFSSYWMSWVRQAPGKGLEWVSYISGDSGYTNYAAPVKGRFTISRDDSKNTLYLQMNSLKTEDTAVYYCARANSSGWYDWYFDLWGRGTLVTVSS
VL: not shown
notes: IgG format
- binding result [2]: binds
- binding result [1]: no binding

B7: MAdCAM Antibody Table 2 clone 15 (antibody, V domains shown)
VH: QVQLVQSGAEVKKPGASVKVSCKASGYTFTGYYMHWVRQAPGQGLEWMGWIGPNSGDTNYAQKFQGRVTMTRDTSTSTVYMELSSLRSEDTAVYYCARDLDHNWYFDLWGRGTLVTVSS
VL: DIVMTQSPLSLPVTPGEPASISCRSSQSLLHSNGYNYLDWYLQKPGQSPQLLIYSSSNRAPGVPDRFSGSGSGTDFTLKISRVEAEDVGVYYCMQALHIPLTFGGGTKVEIK
notes: IgG format
- binding result [2]: binds
- binding result [1]: no binding

B9: MAdCAM Antibody Table 2 clone 1 (antibody, V domains shown)
VH: EVQLLESGGGLVQPGGSLRLSCAASGFTFSSYGMHWVRQAPGKGLEWVAVISDDGSDKYYADSVKGRFTISRDNSKNTLYLQMNSLRAEDTAVYYCTTSKYYYYYGMDVWGQGTTVTVSS
VL: DIQMTQSPSSLSASVGDRVTITCQASQDISKSLNWYQQKPGKAPKLLIYAASSLQSGVPSRFSGSGSGTDFTLTISSLQPEDFATYYCQQGYSTPLTFGGGTKVEIK
notes: IgG format
- binding result [2]: binds
- binding result [1]: binds

B12: MAdCAM Antibody Table 2 clone 12 (antibody, V domains shown)
VH: B10 VH
VL: B9 VL with Q24R, Q27D, D28N, S30G, K31S, S32W, N34A, L96P, G100Q
notes: IgG format
- binding result [2]: binds
- binding result [1]: no binding

B13: MAdCAM Antibody Table 2 clone 32 (antibody, V domains shown)
VH: B10 VH
VL: B9 VL with Q24R, Q27D, D28N, S30G, K31S, S32W, N34A, L96P, G100Q
notes: IgG format
- binding result [1]: no binding

B14: MAdCAM Antibody Table 2 clone 16 (antibody, V domains shown)
VH: EVQLLESGGGLVQPGGSLRLSCAASGFTFDDYAMHWVRQAPGKGLEWVSYIDASGTTIYYADSVKGRFTISRDNSKNTLYLQMNSLRAEDTAVYYCAKDQAAAGYWYFDLWGRGTLVTVSS
VL: B3 VL with R24Q, S28D, T31N, D50K, N53T, T56S, T93S, I94T
notes: IgG format
- binding result [2]: binds
- binding result [1]: no binding

B16: MAdCAM Antibody Table 2 clone 18 (antibody, V domains shown)
VH: QVQLVQSGAEVKKPGSSVKVSCKASGYTFTNYYMHWVRQAPGQGLEWMGGIIPIVDRVKYAQKFQGRVTITADESTSTAYMELSSLRSEDTAVYYCAKGRYTVNYYYGMDVWGQGTTVTVSS
VL: DIQMTQSPSSLSASVGDRVTITCQANQDISNYLNWYQQKPGKAPKLLIYRASKLEAGVPSRFSGSGSGTDFTLTISSLQPEDFATYYCQQSSEIPYSFGQGTKLEIK
notes: IgG format
- binding result [2]: binds
- binding result [1]: no binding

B17: MAdCAM Antibody Table 2 clone 45 (antibody, V domains shown)
VH: EVQLVESGGGLVKPGGSLRLSCAASGFTFGDYAMSWVRQAPGKGLEWVSYISGDIGYTNYAAPVKGRFTISRDDSKNTLYLQMNSLKTEDTAVYYCARDVAATGNWYFDLWGRGTLVTVSS
VL: not shown
notes: IgG format
- binding result [1]: no binding

B18: MAdCAM Antibody Table 2 clone 26 (antibody, V domains shown)
VH: EVQLLESGGGLVQPGGSLRLSCAASGFTFSSYAMSWVRQAPGKGLEWVSYISSSSTYTNYADSVKGRFTISRDNSKNTLYLQMNSLRAEDTAVYYCARANSSSWYDWYFDLWGQGTLVTVSS
VL: not shown
notes: IgG format
- binding result [2]: binds
- binding result [1]: no binding
